Molecular target: CD33 (UniProt P20138 18-364, limits assumed)
Assay: cell-based or functional assay

Chain of CD33 (P20138 18-364 limits assumed): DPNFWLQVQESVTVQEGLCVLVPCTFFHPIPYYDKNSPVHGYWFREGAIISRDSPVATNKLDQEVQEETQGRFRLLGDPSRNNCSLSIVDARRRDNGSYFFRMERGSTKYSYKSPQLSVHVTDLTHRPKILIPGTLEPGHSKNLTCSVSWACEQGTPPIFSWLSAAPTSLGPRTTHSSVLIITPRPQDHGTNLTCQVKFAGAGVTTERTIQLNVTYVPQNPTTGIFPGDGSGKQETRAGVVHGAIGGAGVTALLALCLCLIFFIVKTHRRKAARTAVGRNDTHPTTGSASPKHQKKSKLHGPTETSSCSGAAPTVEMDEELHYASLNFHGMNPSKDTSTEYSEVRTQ

B1: CD33-CAR (other)
chain: MDWIWRILFLVGAATGAHSAQPADIQMTQSPSSLSASVGDRVTITCRASESVDNYGISFMNWFQQKPGKAPKLLIYAASNQGSGVPSRFSGSGSGTDFTLTISSLQPDDFATYYCQQSKEVPWTFGQGTKVEIKGGGGSGGGGSGGGGSQVQLVQSGAEVKKPGSSVKVSCKASGYTFTDYNMHWVRQAPGQGLEWIGYIYPYNGGTGYNQKFKSKATITADESTNTAYMELSSLRSEDTAVYYCARGRPAMDYWGQGTLVTVSSALSNSIMYFSHFVPVFLPAKPTTTPAPRPPTPAPTIASQPLSLRPEASRPAAGGAVHTRGLDPKLCYLLDGILFIYGVILTALFLRVKFSRSADAPAYQQGQNQLYNELNLGRREEYDVLDKRRGRDPEMGGKPRRKNPQEGLYNELQKDKMAEAYSEIGMKGERRRGKGHDGLYQGLSTATKDTYDALHMQALPPR
cytotoxicity against aNK resistant cell lines at 24 hours (flow cytometry assay): > 80%

From patent US20180163176A1 (NANTKWEST, published 2018)
